Experimental data taken from patent US20170119790A1, “Agents, Uses and Methods” (CYTOGUIDE A/S, priority 2009, published 2017).

Tests used:
[1] = biological target: T1, CHO cells expressing CD163 (Homo sapiens, UniProt Q86VB7); assay: CD163 antibody binding and uptake in CHO cells expressing CD163 (confocal microscopy); type: cell-based; settings: 0 or 30 minutes, FIG. 7
T1 construct: Stably transfected Chinese hamster ovary (CHO) cells expressing the full-length human CD163; expressed in transfected cells
Experimental: Monocytes were isolated from PBMC by negative selection using magnetic beads from Dynal (Dynabeads® MyPure™ Monocyte Kit 2; Invitrogen A/S, Taastrup, Denmark) according to instructions provided by the manufacturer. Monocyte preparations were more than 95% (CD14^+) pure determined by flow cytometry. The isolated cells were washed twice with phosphate-buffered saline. Monocyte-derived macrophages (MDMs) were prepared by cell culture of monocytes (approximately 1×10^7 cells) for 4 days in 5% CO2 and 37° C. in RPMI 1640 media (RPMI 1640+25 mM HEPES+I-glutamine) (Invitrogen Corporation, Carlsbad, Calif., USA) with 20% FCS containing 100 ng/ml of M-CSF. MDMs were then detached from the flask by incubation with cell dissociation buffer (Invitrogen A/S, Taastrup, Denmark) for 30 minutes at 4 °C, then flushed, and scraped. […]
(§1) MDMs or CHO cells were washed with 4° C. cold D-PBS, pH 7.4, containing 1% BSA in Lab-Tek™ Chamber Slides (Thermo Fisher Scientific, Roskilde, Denmark). […] Fluorescence was visualized using a Zeiss Axiovert 200M microscope (Carl Zeiss GmbH, Jena, Germany) with an ×100 oil-immersion objective. […] Alternatively, immunostained cells were analyzed by confocal immunofluorescence microscopy using a Zeiss LSM-510 confocal microscope (Carl Zeiss GmbH, Jena, Germany). […]

[2] = biological target: T2, CD163 receptor on surface of human macrophages (Homo sapiens, UniProt Q86VB7); assay: Cellular binding and uptake of fluorescently labeled CD163 antibodies in monocyte-derived macrophages; type: cell-based
T2 construct: Freshly drawn peripheral whole blood samples or PBMC; endogenous in cells; host or cells: human peripheral blood monocytes, blood dendritic cells, monocyte-derived macrophages (healthy donors, buffy coats)
Experimental: Monocytes were isolated from PBMC by negative selection using magnetic beads from Dynal (Dynabeads® MyPure™ Monocyte Kit 2; Invitrogen A/S, Taastrup, Denmark) according to instructions provided by the manufacturer. Monocyte preparations were more than 95% (CD14^+) pure determined by flow cytometry. The isolated cells were washed twice with phosphate-buffered saline. Monocyte-derived macrophages (MDMs) were prepared by cell culture of monocytes (approximately 1×10^7 cells) for 4 days in 5% CO2 and 37° C. in RPMI 1640 media (RPMI 1640+25 mM HEPES+I-glutamine) (Invitrogen Corporation, Carlsbad, Calif., USA) with 20% FCS containing 100 ng/ml of M-CSF. MDMs were then detached from the flask by incubation with cell dissociation buffer (Invitrogen A/S, Taastrup, Denmark) for 30 minutes at 4 °C, then flushed, and scraped. The cells were then cultured for 24 hours in RPMI 1640 media (RPMI 1640+25 mM HEPES+I-glutamine) (Invitrogen Corporation, Carlsbad, Calif., USA) supplemented with 20% FCS containing 100 ng/ml of M-CSF at 37° C. in 95% air and 5% CO2 in Lab-Tek™ Chamber Slides (Thermo Fisher Scientific, Roskilde, Denmark). 200 nM dexamethasone (Merck KGaA, Darmstadt, Germany) was added during culture to increase CD163 expression. Stably transfected Chinese hamster ovary (CHO) cells expressing the full-length human CD163, as described above, were cultured in serum-free CHO medium (HyQ-CCM, HyClone, Logan, Utah) containing 300 μg/ml Hygromycin B, as previously described (2).
as §1, with “Denmark). The cells were then incubated with 10 μg/ml different clones of anti-CD163 for one hour at 4° C. and then washed three times with D-PBS, pH 7.4, with 1% BSA.” for “Denmark).”

[3] = biological target: CD163 (Homo sapiens, UniProt Q86VB7); assay: Surface plasmon resonance (Biacore) analysis of mAb binding to immobilized CD163
Experimental: (§2) SPR analysis of the binding of mAbs to CD163 was carried out on a Biacore 2000 instrument (Biacore, Uppsala, Sweden). The Biacore sensor chips (type CM5) were activated with a 1:1 mixture of 0.2 M N-ethyl-N′-(3-dimethylaminopropyl) carbodiimide and 0.05 M N-hydroxysuccimide in water. Purified recombinant CD163 were immobilized in 10 mM sodium acetate, pH 4.0, and the remaining binding sites were blocked with 1 M ethanolamine, pH 8.5. The SPR signal generated from immobilized recombinant CD163 proteins corresponded to 40-70 fmol of protein/mm^2. Sensorgrams were generated using mAb concentrations ranging from 5-100 nM. The flow cells were regenerated with 1.6 M glycine-HCl, pH 3. The running buffer used for the experiment was either CaHBS 10 mM Hepes, 150 mM NaCl, 3.0 mM CaCl2, 1.0 mM EGTA, and 0.005% Tween 20, […], and 0.005% Tween 20, pH 7.4, mAb samples were dissolved in the same buffer as the running buffer used. All binding data were analyzed using the Biamolecular Interaction Analysis evaluation program version 3.1.
as §2, with “7.4, KN2/NRY and Mac-158” for “7.4, mAb”, “buffer used at a concentration of 5 μg/ml.” for “buffer used.”

CD163, sequence (Q86VB7 42-1156): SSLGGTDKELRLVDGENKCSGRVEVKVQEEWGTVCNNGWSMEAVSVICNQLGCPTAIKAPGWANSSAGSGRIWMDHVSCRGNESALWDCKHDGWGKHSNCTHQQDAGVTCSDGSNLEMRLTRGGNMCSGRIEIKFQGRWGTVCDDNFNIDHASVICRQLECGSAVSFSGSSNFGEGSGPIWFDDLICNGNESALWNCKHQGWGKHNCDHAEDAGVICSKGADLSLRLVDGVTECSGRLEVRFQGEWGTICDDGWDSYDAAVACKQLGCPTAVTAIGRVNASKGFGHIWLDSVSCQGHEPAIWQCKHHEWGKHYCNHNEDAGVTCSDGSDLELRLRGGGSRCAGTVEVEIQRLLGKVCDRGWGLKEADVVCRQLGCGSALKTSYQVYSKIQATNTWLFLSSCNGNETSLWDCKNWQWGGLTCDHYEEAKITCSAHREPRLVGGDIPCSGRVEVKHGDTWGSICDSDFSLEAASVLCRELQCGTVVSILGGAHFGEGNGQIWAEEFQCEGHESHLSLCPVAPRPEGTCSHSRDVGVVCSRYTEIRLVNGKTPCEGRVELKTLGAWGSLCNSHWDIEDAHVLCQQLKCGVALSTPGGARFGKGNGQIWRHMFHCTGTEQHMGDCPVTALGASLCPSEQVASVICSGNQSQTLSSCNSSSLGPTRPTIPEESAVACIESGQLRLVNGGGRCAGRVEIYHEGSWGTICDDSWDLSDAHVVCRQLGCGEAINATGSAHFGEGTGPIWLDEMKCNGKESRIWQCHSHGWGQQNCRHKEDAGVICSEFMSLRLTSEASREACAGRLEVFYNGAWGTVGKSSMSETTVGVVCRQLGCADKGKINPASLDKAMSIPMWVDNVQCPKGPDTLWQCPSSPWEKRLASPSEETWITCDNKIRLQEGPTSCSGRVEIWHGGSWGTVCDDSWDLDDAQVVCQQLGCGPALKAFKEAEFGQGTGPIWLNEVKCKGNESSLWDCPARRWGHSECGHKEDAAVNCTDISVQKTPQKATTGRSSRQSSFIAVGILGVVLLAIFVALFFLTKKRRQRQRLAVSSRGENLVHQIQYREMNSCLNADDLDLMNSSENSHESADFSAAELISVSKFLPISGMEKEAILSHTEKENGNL
T2 sequence (Q86VB7 42-1156): as above
T1 sequence (Q86VB7 42-1156): as above

B1: MAC2-158: anti-human CD163 murine mAb, binds SRCR domain 1, IQ Products; VH SEQ ID NO: 1, VL SEQ ID NO: 2 (antibody, V domains shown)
VH: DVQLQESGPGLVKPSQSLSLTCTVTGYSITSDYAWNWIRQFPGNKLEWMGYITYSGITNYNPSLKSQISITRDTSKNQFFLQLNSVTTEDTATYYCVSGTYYFDYWGQGTTLTVSS
VL: SVVMTQTPKSLLISIGDRVTITCKASQSVSSDVAWFQQKPGQSPKPLIYYASNRYTGVPDRFTGSGYGTDFTFTISSVQAEDLAVYFCGQDYTSPRTFGGGTKLEIKRA
modifications: Mac2-158 VH; Mac2-158 VL
For B1, the binding and uptake [1] was “best binding and uptake”, the binding and uptake ([2]; 0 or 30 minutes, FIG. 6) was “best binding and uptake” and the “intensity of intracellular staining” value ([2]; after incubation for 30 min) was “most prominent”. The cell surface staining ([2]; immunofluorescence, 0 min, macrophages stimulated with 200 nM dexamethasone) was “pronounced cell surface staining”, the “affinity for human CD163 immobilized on a Biacore chip” value ([3]; KN2/NRY compared with Mac2-158, 5 μg/ml, FIG. 19) was “Virtually similar affinities” and the “strength of binding to CD163 in Biacore studies” value ([3]; comparison between mAbs) was “high affinity”. The “affinities for CD163” value ([3]; in both 2 mM free Ca2+ and 10 mM EDTA) was “nanomolar or sub-nanomolar range” and the “calcium dependence of binding activity in SPR-analysis” value ([3]; with/without calcium) was “binding activity regardless extracellular levels of calcium”.
